Results as given in the supplement of paper PMC10065799, “High-throughput profiling of sequence recognition by tyrosine kinases and SH2 domains using bacterial peptide display” (eLife, 2023).

Experiments:
c-Src SH2 = experiment: SH2 binding enrichment of the phosphorylated peptide, bacterial display (enrichment ratio); higher = better substrate or ligand; peptides without Tyr show the background
Grb2 SH2 = Grb2 SH2 (UniProt P62993); experiment: as above
SHP2-C SH2 = experiment: as above
AncSZ = experiment: phosphorylation enrichment, bacterial display (enrichment ratio); higher = better substrate or ligand; peptides without Tyr show the background
Hck = Hck (UniProt P08631); experiment: as above
Chain of Hck (P08631 whole entry, looked up): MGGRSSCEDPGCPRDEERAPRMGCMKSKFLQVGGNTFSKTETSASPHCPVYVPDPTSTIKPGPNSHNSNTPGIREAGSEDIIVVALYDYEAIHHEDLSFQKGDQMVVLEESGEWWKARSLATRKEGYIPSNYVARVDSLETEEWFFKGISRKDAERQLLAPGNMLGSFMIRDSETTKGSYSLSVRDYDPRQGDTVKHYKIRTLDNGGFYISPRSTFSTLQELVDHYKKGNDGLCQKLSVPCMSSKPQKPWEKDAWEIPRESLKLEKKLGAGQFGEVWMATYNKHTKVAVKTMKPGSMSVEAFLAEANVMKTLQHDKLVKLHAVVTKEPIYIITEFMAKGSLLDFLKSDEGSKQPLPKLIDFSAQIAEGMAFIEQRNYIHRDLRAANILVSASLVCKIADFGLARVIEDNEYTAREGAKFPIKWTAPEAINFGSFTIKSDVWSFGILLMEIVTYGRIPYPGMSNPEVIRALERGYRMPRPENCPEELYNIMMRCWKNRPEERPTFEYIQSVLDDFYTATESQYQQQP

FGFR3 = FGFR3 (UniProt P22607); experiment: as above
Chain of FGFR3 (P22607 whole entry, looked up): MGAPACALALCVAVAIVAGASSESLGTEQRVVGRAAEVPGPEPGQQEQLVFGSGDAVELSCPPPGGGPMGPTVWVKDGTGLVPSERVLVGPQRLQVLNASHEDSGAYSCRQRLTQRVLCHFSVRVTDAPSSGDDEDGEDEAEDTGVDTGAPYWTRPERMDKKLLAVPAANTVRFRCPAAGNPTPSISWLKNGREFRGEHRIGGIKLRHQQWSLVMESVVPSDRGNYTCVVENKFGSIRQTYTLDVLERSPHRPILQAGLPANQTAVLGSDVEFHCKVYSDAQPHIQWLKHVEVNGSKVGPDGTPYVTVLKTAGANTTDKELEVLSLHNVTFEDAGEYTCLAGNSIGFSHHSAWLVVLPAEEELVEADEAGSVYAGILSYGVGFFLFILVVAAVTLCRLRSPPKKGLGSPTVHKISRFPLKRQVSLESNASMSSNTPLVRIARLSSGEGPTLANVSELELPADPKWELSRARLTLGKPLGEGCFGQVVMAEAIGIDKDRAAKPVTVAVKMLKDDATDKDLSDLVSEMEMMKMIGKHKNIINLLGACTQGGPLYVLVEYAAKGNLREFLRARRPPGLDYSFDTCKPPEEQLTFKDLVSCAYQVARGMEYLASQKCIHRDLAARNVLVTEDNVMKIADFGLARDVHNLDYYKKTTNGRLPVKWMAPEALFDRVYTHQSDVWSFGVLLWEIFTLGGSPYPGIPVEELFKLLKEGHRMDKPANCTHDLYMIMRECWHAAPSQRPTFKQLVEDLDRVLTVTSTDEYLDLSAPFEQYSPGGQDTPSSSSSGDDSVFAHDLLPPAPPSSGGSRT

Fes = Fes (UniProt P07332); experiment: as above
Chain of Fes (P07332 whole entry, looked up): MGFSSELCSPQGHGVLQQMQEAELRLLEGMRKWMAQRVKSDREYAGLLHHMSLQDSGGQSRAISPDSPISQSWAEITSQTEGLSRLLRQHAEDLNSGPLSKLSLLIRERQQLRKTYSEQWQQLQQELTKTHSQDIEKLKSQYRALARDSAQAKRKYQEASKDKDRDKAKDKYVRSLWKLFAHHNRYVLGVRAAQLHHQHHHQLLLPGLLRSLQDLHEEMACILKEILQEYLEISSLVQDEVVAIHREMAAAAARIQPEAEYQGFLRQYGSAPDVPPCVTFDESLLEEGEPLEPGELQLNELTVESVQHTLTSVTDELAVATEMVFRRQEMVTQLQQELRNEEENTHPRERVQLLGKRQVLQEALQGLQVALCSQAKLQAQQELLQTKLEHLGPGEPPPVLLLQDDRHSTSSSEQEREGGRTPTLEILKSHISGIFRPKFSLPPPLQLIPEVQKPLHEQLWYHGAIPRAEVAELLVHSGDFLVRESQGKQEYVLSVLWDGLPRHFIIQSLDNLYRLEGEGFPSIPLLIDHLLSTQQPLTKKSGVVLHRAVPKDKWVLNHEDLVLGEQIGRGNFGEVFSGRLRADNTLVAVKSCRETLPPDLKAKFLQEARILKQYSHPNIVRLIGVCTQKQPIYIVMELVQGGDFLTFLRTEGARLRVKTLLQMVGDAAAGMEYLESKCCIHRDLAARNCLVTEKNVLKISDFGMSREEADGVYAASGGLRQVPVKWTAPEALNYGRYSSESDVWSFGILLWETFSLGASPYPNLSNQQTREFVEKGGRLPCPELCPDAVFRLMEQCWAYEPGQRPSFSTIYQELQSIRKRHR

c-Abl (mouse) = experiment: as above
c-Src = experiment: as above
Fer (mouse) = experiment: as above
Fyn = Fyn (UniProt P06241); experiment: as above
Chain of Fyn (P06241 whole entry, looked up): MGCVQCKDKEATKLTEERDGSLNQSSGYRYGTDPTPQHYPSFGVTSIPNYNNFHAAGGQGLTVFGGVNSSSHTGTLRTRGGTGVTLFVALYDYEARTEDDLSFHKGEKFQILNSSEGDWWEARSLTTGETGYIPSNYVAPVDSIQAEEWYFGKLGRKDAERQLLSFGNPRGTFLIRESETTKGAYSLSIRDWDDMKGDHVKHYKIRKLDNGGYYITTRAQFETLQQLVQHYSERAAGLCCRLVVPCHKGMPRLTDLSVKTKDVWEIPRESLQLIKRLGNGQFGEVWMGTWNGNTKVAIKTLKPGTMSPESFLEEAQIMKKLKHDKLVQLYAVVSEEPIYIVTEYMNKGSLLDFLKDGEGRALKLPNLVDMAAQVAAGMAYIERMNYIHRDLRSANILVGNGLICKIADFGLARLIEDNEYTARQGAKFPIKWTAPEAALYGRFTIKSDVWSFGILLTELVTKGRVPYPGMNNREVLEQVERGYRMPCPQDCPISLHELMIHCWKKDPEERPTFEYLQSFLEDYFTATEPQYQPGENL

MERTK = MERTK (UniProt Q12866); experiment: as above
Chain of MERTK (Q12866 whole entry, looked up): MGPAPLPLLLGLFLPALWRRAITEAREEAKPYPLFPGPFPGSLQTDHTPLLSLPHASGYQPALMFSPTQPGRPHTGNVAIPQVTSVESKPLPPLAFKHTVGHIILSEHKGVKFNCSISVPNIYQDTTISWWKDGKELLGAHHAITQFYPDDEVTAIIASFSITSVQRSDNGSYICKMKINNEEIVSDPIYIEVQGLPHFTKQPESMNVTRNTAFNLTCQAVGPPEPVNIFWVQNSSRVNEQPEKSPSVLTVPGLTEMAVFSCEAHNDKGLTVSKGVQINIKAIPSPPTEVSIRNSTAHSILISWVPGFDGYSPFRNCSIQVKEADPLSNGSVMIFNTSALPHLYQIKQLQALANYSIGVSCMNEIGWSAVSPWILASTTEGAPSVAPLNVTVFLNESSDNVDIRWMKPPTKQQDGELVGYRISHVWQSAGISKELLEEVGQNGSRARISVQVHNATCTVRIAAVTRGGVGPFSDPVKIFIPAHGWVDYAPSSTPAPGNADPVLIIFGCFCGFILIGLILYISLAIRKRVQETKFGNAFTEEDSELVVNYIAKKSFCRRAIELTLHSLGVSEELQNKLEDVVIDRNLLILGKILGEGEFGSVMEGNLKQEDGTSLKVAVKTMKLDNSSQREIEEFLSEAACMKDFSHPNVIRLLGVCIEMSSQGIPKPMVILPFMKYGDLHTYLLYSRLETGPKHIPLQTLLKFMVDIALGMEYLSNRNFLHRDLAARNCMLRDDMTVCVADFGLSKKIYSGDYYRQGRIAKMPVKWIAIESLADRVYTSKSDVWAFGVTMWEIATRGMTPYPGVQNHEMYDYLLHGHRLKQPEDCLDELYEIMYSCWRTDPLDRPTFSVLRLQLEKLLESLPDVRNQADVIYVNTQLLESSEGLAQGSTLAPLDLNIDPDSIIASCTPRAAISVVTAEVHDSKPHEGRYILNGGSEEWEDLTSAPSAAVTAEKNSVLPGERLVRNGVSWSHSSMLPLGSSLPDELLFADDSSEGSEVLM

EPHB2 = EPHB2 (UniProt P29323); experiment: as above
EPHB1 = EPHB1 (UniProt P54762); experiment: as above
Jak2 = Jak2 (UniProt O60674); experiment: as above
Chain of Jak2 (O60674 whole entry, looked up): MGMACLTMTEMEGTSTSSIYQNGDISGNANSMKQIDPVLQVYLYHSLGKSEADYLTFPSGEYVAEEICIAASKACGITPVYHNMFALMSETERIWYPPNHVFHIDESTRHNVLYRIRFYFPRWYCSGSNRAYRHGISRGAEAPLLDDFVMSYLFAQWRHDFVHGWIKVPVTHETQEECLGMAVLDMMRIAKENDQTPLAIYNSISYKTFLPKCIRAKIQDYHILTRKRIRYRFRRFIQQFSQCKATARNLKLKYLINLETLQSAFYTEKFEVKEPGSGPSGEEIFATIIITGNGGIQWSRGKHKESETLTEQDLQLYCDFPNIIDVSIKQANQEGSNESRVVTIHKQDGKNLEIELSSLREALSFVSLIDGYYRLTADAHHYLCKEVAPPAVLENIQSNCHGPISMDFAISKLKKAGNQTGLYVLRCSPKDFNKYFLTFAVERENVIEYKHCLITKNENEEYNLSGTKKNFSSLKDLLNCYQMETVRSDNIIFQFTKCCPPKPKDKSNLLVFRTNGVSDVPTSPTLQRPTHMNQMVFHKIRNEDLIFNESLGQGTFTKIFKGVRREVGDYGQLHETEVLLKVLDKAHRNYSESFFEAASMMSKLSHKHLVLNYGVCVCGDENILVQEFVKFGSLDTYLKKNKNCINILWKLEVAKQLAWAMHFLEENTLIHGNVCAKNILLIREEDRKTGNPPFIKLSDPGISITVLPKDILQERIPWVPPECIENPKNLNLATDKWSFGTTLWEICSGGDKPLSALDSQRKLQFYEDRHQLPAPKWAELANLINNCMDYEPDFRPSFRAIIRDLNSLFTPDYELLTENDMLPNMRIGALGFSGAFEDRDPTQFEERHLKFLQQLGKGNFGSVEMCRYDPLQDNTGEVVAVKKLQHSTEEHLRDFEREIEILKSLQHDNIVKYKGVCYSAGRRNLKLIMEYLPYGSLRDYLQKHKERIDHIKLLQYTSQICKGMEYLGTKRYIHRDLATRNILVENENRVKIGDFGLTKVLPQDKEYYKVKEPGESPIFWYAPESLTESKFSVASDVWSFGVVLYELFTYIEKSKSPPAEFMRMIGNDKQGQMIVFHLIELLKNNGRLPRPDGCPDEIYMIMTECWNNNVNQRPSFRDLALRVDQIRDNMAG

FGFR1 = FGFR1 (UniProt P11362); experiment: as above
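For SH2 binding enrichment of the phosphorylated peptide, bacterial display in this document: peptide library displayed on the E. coli surface as eCPX fusions, selected cells deep-sequenced, score is each peptide's frequency after selection divided by its frequency in the input.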
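For phosphorylation enrichment, bacterial display in this document: 11-residue human phosphosite peptides and single-mutation variants displayed on the E. coli surface, counted by deep sequencing, each peptide's frequency after selection divided by its frequency in the unselected input library; frequency after pTyr selection over input frequency; kinase dosed for 20-30% of maximal phosphorylation in three min.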

Chain of Grb2 SH2 (P62993 whole entry, looked up): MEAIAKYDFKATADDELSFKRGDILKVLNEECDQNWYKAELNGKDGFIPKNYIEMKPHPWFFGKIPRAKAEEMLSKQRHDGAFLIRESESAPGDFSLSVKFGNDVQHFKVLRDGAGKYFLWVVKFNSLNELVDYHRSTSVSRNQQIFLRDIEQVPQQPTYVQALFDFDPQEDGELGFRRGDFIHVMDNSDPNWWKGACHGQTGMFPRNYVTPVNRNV

Sequence | SH2 binding enrichment (c-Src SH2) | SH2 binding enrichment (Grb2 SH2) | SH2 binding enrichment (SHP2-C SH2) | phosphorylation enrichment (AncSZ) | phosphorylation enrichment (Hck) | phosphorylation enrichment (FGFR3) | phosphorylation enrichment (Fes) | phosphorylation enrichment (c-Abl (mouse)) | phosphorylation enrichment (c-Src) | phosphorylation enrichment (Fer (mouse)) | phosphorylation enrichment (Fyn) | phosphorylation enrichment (MERTK) | phosphorylation enrichment (EPHB2) | phosphorylation enrichment (EPHB1) | phosphorylation enrichment (Jak2) | phosphorylation enrichment (FGFR1)
RQQQDYWLIDV [ANPEP_Y600] | 0.586 | 1.07 | 0.913 | 3.3 | 0.625 | 17.4 | 1.6 | 1.32 | 1.47 | 3.21 | 0.847 | 4.02 | 4.64 | 8.95 | 2.43 | 20.6
RRERLYGGGGG [FUS_Y526_P525L] | 0.402 | 0.657 | 0.404 | 0.701 | 0.365 | 0.545 | 1.14 | 0.39 | 0.878 | 0.499 | 0.535 | 0.561 | 0.398 | 0.677 | 0.528 | 0.546
RRGMPYGGHGD [TGM1_Y312_R315H] | 0.415 | 0.97 | 0.764 | 0.572 | 0.52 | 0.472 | 0.653 | 0.357 | 0.434 | 0.582 | 0.706 | 0.465 | 0.624 | 0.414 | 0.377 | 0.758
RRNEEYCLLDS [ITK_Y198] | 0.836 | 0.75 | 0.54 | 2.25 | 1.1 | 1.12 | 1.64 | 0.821 | 0.805 | 0.967 | 1.7 | 1.26 | 1.06 | 1 | 1.57 | 1.15
RRVLVYGDRGA [QDPR_Y16_G18D] | 0.442 | 0.838 | 0.529 | 0.585 | 0.525 | 0.549 | 0.539 | 0.445 | 0.573 | 0.424 | 0.542 | 0.48 | 0.322 | 0.34 | 0.485 | 0.413
RRYVYYYSYLL [PTEN_Y177] | 0.474 | 0.631 | 0.65 | 0.814 | 0.764 | 1.11 | 0.768 | 1.39 | 0.79 | 0.518 | 0.771 | 3.68 | 0.829 | 0.672 | 0.986 | 1.88
RSRRSYSCQVM [IGLL1_Y192] | 0.565 | 0.473 | 0.565 | 0.754 | 0.64 | 0.832 | 0.862 | 0.797 | 0.924 | 0.639 | 0.808 | 0.9 | 0.802 | 0.616 | 0.774 | 0.586
RTMPDYTSFNT [EPHB2_Y912_I909M] | 0.521 | 0.935 | 0.463 | 1.38 | 0.591 | 1 | 0.947 | 0.618 | 1.31 | 0.705 | 1.07 | 0.459 | 0.961 | 0.724 | 0.692 | 1.05
RTTKTYFPHFD [HBA1_Y43_P38R] | 1.23 | 1.28 | 1.18 | 0.967 | 0.569 | 1.17 | 0.86 | 0.884 | 1.24 | 0.458 | 0.418 | 0.87 | 0.527 | 1.1 | 2.09 | 0.914
RVDRDYVLKSA [HTATIP2_Y111] | 0.418 | 0.976 | 0.653 | 1.08 | 0.772 | 0.585 | 0.872 | 0.709 | 0.961 | 0.665 | 0.47 | 0.857 | 0.442 | 0.487 | 0.75 | 0.627
RVLHNYLVWRV [ECEL1_Y400] | 1.73 | 1.74 | 1.79 | 2.51 | 1.01 | 1.7 | 1.93 | 0.762 | 0.526 | 1.12 | 0.867 | 0.79 | 1.12 | 1.6 | 1.07 | 1.4
RVQQIYSDSDL [MIB1_Y376] | 0.541 | 0.842 | 0.962 | 1.32 | 3.68 | 0.852 | 1.32 | 1.31 | 5.32 | 3.92 | 4.75 | 4.58 | 0.837 | 1.45 | 0.902 | 0.574
SAVTGYRVDVI [FN1_Y937] | 0.452 | 0.84 | 0.514 | 0.546 | 0.374 | 0.534 | 0.566 | 0.432 | 0.353 | 0.335 | 0.425 | 0.358 | 0.377 | 0.368 | 0.616 | 0.398
SDLTDYLMKIL [ACTA1_Y190_R185S] | 0.608 | 1.16 | 0.903 | 1.14 | 0.571 | 0.732 | 1.22 | 0.789 | 0.507 | 0.582 | 0.535 | 0.445 | 0.648 | 0.578 | 1.1 | 0.532
SEELHYFVQNH [UQCRC2_Y207] | 0.587 | 0.806 | 0.819 | 1.45 | 0.524 | 1.39 | 1.16 | 1.07 | 0.685 | 0.562 | 0.523 | 0.841 | 0.661 | 0.647 | 1.08 | 1.12
SELVRYDARVH [MET_Y971] | 0.486 | 0.862 | 0.737 | 0.595 | 0.581 | 0.627 | 0.739 | 0.523 | 0.433 | 0.442 | 0.456 | 0.443 | 0.494 | 0.388 | 0.687 | 0.479
SEVVPYEPPEV [TP53_Y220_V216E] | 0.563 | 0.902 | 1.02 | 1.28 | 0.582 | 0.81 | 1.33 | 0.784 | 0.529 | 0.585 | 0.583 | 0.473 | 0.621 | 0.604 | 1.16 | 0.601
SFCFRYRCAAR [SUMF1_Y344_YF] | 0.4 | 0.669 | 0.483 | 0.772 | 0.469 | 0.54 | 0.634 | 0.763 | 0.618 | 0.472 | 0.49 | 0.614 | 0.571 | 0.466 | 0.643 | 0.47
SFMVRYNQPRV [GRIN2D_Y736_YF] | 0.894 | 1.1 | 0.959 | 0.832 | 0.505 | 0.57 | 0.954 | 0.582 | 0.398 | 0.423 | 0.446 | 0.389 | 0.698 | 0.557 | 0.685 | 0.473
SFPREYGSQEG [RBM10_Y48_YF] | 0.467 | 0.9 | 0.681 | 0.715 | 0.565 | 0.567 | 0.755 | 0.461 | 0.475 | 0.387 | 0.506 | 0.48 | 0.447 | 0.392 | 0.532 | 0.491
SFPSYYTSHVQ [NEFL_Y443] | 0.877 | 1.18 | 1.2 | 0.88 | 1.1 | 1.76 | 0.914 | 1.85 | 0.737 | 0.759 | 0.59 | 5.38 | 1.1 | 1.88 | 4.39 | 1.86
SFSGEYGSGGG [ZG16_Y30_G32S_YF] | 0.409 | 0.885 | 0.728 | 0.556 | 0.496 | 0.432 | 0.658 | 0.564 | 0.512 | 0.46 | 0.43 | 0.327 | 0.454 | 0.34 | 0.563 | 0.423
SGEKPYKCSVC [ZNF543_Y283_E287V] | 0.532 | 1.02 | 0.712 | 0.495 | 0.255 | 0.355 | 0.524 | 0.493 | 0.365 | 0.398 | 0.373 | 0.416 | 0.298 | 0.261 | 0.434 | 0.342
SGGSSYGSGGC [KRT1_Y532_G537C] | 0.538 | 0.756 | 0.536 | 0.681 | 0.493 | 0.667 | 0.932 | 0.697 | 0.502 | 0.53 | 0.465 | 0.431 | 0.596 | 0.558 | 0.677 | 0.589
SGSIHYSCVPR [GLB1_Y57_R59C] | 0.569 | 0.734 | 0.747 | 1.05 | 0.54 | 0.771 | 1.15 | 0.898 | 0.526 | 0.578 | 0.474 | 0.517 | 0.585 | 0.591 | 1.06 | 0.536
SGVVPYEPPEV [TP53_Y220_V216G] | 0.49 | 0.814 | 0.77 | 1.12 | 0.524 | 0.781 | 1.21 | 0.659 | 0.481 | 0.572 | 0.667 | 0.443 | 0.738 | 0.581 | 0.986 | 0.588
SHGKRYRVPSD [HHIPL2_Y395] | 0.557 | 0.887 | 0.592 | 0.379 | 0.274 | 0.366 | 0.413 | 0.337 | 0.352 | 0.285 | 0.395 | 0.374 | 0.274 | 0.254 | 0.314 | 0.301
SHNELYYEAAE [VANGL1_Y344_E347A] | 1.4 | 0.726 | 0.922 | 1.6 | 1.1 | 2.54 | 1.12 | 0.801 | 1.17 | 3.52 | 0.986 | 1.9 | 0.737 | 1 | 1.18 | 2.63
SHTPSYCDEWL [RITA1_Y109_S113W] | 0.97 | 1.19 | 0.748 | 1.17 | 0.505 | 0.779 | 1.12 | 0.985 | 0.494 | 0.57 | 0.473 | 0.553 | 0.558 | 0.645 | 0.97 | 0.529
